Experimental data reported in IntAct's records for PubMed 15143060.

B1: ADP-ribosylation factor-binding protein GGA1 (Homo sapiens), Q9UJY5 (parent)
chain: MEPAMEPETLEARINRATNPLNKELDWASINGFCEQLNEDFEGPPLATRLLAHKIQSPQEWEAIQALTVLETCMKSCGKRFHDEVGKFRFLNELIKVVSPKYLGSRTSEKVKNKILELLYSWTVGLPEEVKIAEAYQMLKKQGIVKSDPKLPDDTTFPLPPPRPKNVIFEDEEKSKMLARLLKSSHPEDLRAANKLIKEMVQEDQKRMEKISKRVNAIEEVNNNVKLLTEMVMSHSQGGAAAGSSEDLMKELYQRCERMRPTLFRLASDTEDNDEALAEILQANDNLTQVINLYKQLVRGEEVNGDATAGSIPGSTSALLDLSGLDLPPAGTTYPAMPTRPGEQASPEQPSASVSLLDDELMSLGLSDPTPPSGPSLDGTGWNSFQSSDATEPPAPALAQAPSMESRPPAQTSLPASSGLDDLDLLGKTLLQQSLPPESQQVRWEKQQPTPRLTLRDLQNKSSSCSSPSSSATSLLHTVSPEPPRPPQQPVPTELSLASITVPLESIKPSNILPVTVYDQHGFRILFHFARDPLPGRSDVLVVVVSMLSTAPQPIRNIVFQSAVPKVMKVKLQPPSGTELPAFNPIVHPSAITQVLLLANPQKEKVRLRYKLTFTMGDQTYNEMGDVDQFPPPETWGSL

Variants of: B1
Settings: with arf1_human ARF1, P84077
Sequence of arf1_human ARF1, P84077 (P84077 whole entry): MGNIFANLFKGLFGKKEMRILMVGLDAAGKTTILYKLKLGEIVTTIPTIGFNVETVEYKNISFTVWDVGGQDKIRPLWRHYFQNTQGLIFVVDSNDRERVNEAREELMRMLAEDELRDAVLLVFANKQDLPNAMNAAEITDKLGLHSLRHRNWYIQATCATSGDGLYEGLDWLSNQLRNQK

effect of a mutation on the interaction | Variant
decreasing interaction | L182A;N194A;I197A
